# Results as given in patent US12281155 (INSTITUT PASTEUR, dated 2025).
# Substitutions are numbered along the chain they refer to.
# B1: SPK002M A3 antibody (antibody, human IgG1, kappa, V domains shown)
# VH: EVQLVESGGGLIQPGGSLRLSCAASTITVTSNYMSWVRQAPGKGLEWVSVIYPGGSTFYADSVKGRFTISADNSKNTLYLQMNSLRAEDTAVYYCARDLVVYGMDVWGQGTTVTVSS
# VL: EIVLTQSPGTLSLSPGERATLSCRASQSVSSSYLAWYQQKPGQAPRLLIYGASSRATGIPGRFSGSGSGTDFTLTISRLEPEDFAVYYCQQGVTFGGGTKVEIKR
# B2: SPK002M A4 antibody (antibody, human IgG1, kappa, V domains shown)
# VH: B1 VH with T26V
# VL: B1 VL
# B3: SPK002M A6 antibody (antibody, human IgG1, kappa, V domains shown)
# VH: B1 VH with T26G
# VL: B1 VL with V86I
# B4: SPK002M A5 antibody (antibody, human IgG1, kappa, V domains shown)
# VH: B1 VH with T26V
# VL: B1 VL with V86I
# B5: SPK002M A2 antibody (antibody, human IgG1, kappa, V domains shown)
# VH: B1 VH
# VL: B1 VL with S28G
# B6: SPK002M A1 antibody (antibody, human IgG1, kappa, V domains shown)
# VH: B1 VH
# VL: B1 VL with S28G, V29F
# B7: SPK002 antibody (parental version Cv2.3194 described in WO 2022/228827) (antibody, V domains shown)
# VH: EVQLVESGGGLIQPGGSLRLSCAASGITVTSNYMSWVRQAPGKGLEWVSVIYPGGSTFYADSVKGRFTISRDNSKNTLYLQMNSLRAEDTAVYYCARDLVVYGMDVWGQGTTVTVS
# VL: EIVLTQSPGTLSLSPGERATLSCRASQSVSSSYLAWYQQKPGQAPRLLIYGASSRATGIPGRFSGSGSGTDFTLTISRLEPEDFAIYYCQQGVTFGGGTKVEIK
# Molecular target: Spike protein of SARS-CoV-2 strain D614G (hCoV-19/France/GE1973/2020) (SARS-CoV-2, UniProt P0DTC2 14-1273)
# Test: cell-based or functional assay
row,Binder,"IC50, S-Fuse neutralization of live virus [µg/mL]"
1,B1,0.11
2,B2,0.11
3,B3,0.07
4,B4,0.09
5,B5,0.1
6,B6,0.08
7,B7,0.09

# Molecular target: Spike protein of SARS-CoV-2 strain EG.5.1 (hCoV-19/France/GES-IPP15954/2023) (SARS-CoV-2)
# Test: cell-based or functional assay
row,Binder,"IC50, S-Fuse neutralization of live virus [µg/mL]"
1,B1,5.92
2,B2,2.8
3,B3,21.1
4,B4,2.86
5,B5,1.65
6,B6,0.15
7,B7,100

# Molecular target: Spike protein of SARS-CoV-2 strain JN.1 (hCoV-19/France/HDF-IPP21391/2023) (SARS-CoV-2)
# Test: cell-based or functional assay
row,Binder,"IC50, S-Fuse neutralization of live virus [µg/mL]"
1,B1,76.3
2,B2,54.6
3,B3,100
4,B4,50.9
5,B5,25.3
6,B6,1.28
7,B7,100

# Molecular target: Spike protein of SARS-CoV-2 strain XBB.1.5 (GISAID EPI_ISL_16353849) (SARS-CoV-2)
# Test: cell-based or functional assay
row,Binder,"IC50, S-Fuse neutralization of live virus [µg/mL]"
1,B1,0.12
2,B2,0.12
3,B3,0.36
4,B4,0.12
5,B5,0.1
6,B6,0.07
7,B7,216

# Molecular target: Spike protein of SARS-CoV-2 strain XBB.1.16 (hCoV-19/France/GES-IPP7712/2023) (SARS-CoV-2)
# Test: cell-based or functional assay
row,Binder,"IC50, S-Fuse neutralization of live virus [µg/mL]"
1,B1,0.36
2,B2,0.36
3,B3,1.34
4,B4,0.36
5,B5,0.33
6,B6,0.17
7,B7,156

# Molecular target: Spike protein of SARS-CoV-2 strain BA.2.86 (hCoV-19/France/IDF-IPP17625/2023) (SARS-CoV-2)
# Test: cell-based or functional assay
row,Binder,"IC50, S-Fuse neutralization of live virus [µg/mL]"
1,B1,0.05
2,B2,0.04
3,B3,0.63
4,B4,0.08
5,B5,0.05
6,B6,0.02
7,B7,100

# Molecular target: T1, recombinant SARS-CoV-2 Spike RBD domain, EG.5 variant (SARS-CoV-2)
# T1 construct: also called RBD EG.5.1 variant
# Test: competition ELISA, blocking of RBD binding to ACE2 ectodomain
row,Binder,Blocking % [%]
1,B1,79
2,B2,80
3,B4,83
4,B5,88
5,B6,90

# Molecular target: T2, recombinant SARS-CoV-2 Spike RBD domain, BA.2.86 variant (SARS-CoV-2)
# T2 construct: also called RBD BA.2.86 variant
# Test: as above
row,Binder,Blocking % [%]
1,B1,85
2,B2,80
3,B4,84
4,B5,85
5,B6,85

# Molecular target: T3, recombinant SARS-CoV-2 Spike RBD domain, Delta variant (SARS-CoV-2)
# T3 construct: also called RBD Delta variant
# Test: as above
row,Binder,Blocking % [%]
1,B1,95
2,B2,93
3,B4,93
4,B5,95
5,B6,94

# Molecular target: T4, recombinant SARS-CoV-2 Spike RBD domain, BA.4/5 variant (SARS-CoV-2)
# T4 construct: also called RBD BA.4/5 variant
# Test: as above
row,Binder,Blocking % [%]
1,B1,96
2,B2,96
3,B4,96
4,B5,97
5,B6,97

# Molecular target: T5, recombinant SARS-CoV-2 Spike RBD domain, JN-1 variant (SARS-CoV-2)
# T5 construct: also called RBD JN-1 variant
# Test: as above
row,Binder,Blocking % [%]
1,B1,0
2,B2,2
3,B4,2
4,B5,1
5,B6,71

# Molecular target: T6, recombinant SARS-CoV-2 Spike RBD domain, BA.2 variant (SARS-CoV-2)
# T6 construct: also called RBD BA.2. variant
# Test: as above
row,Binder,Blocking % [%]
1,B1,94
2,B2,93
3,B4,93
4,B5,94
5,B6,95

# Molecular target: T7, recombinant SARS-CoV-2 Spike RBD domain, XBB.1.5 variant (SARS-CoV-2)
# T7 construct: also called RBD XBB.1.5 variant
# Test: as above
row,Binder,Blocking % [%]
1,B1,95
2,B2,95
3,B4,95
4,B5,96
5,B6,97

# Molecular target: T8, recombinant SARS-CoV-2 Spike RBD domain, XBB.1.16 variant (SARS-CoV-2)
# T8 construct: also called RBD XBB.1.16 variant
# Test: as above
row,Binder,Blocking % [%]
1,B1,95
2,B2,95
3,B4,95
4,B5,96
5,B6,97

# Molecular target: T9, recombinant SARS-CoV-2 Spike RBD domain, BA.2.75.2 variant (SARS-CoV-2)
# T9 construct: also called RBD BA.2.75.2 variant
# Test: as above
row,Binder,Blocking % [%]
1,B1,96
2,B2,96
3,B4,95
4,B5,96
5,B6,96

# Molecular target: T10, recombinant SARS-CoV-2 Spike RBD domain, BQ.1.1 variant (SARS-CoV-2)
# T10 construct: also called RBD BQ.1.1. variant
# Test: as above
row,Binder,Blocking % [%]
1,B1,96
2,B2,96
3,B4,96
4,B5,97
5,B6,97

# Molecular target: T1, recombinant SARS-CoV-2 Spike RBD …
# Test: ELISA on coated RBD
row,Binder,Binding AUC
1,B1,34
2,B2,34
3,B4,35
4,B5,35
5,B6,35

# Molecular target: T2, recombinant SARS-CoV-2 Spike RBD …
# Test: ELISA on coated RBD
row,Binder,Binding AUC
1,B1,38
2,B2,38
3,B4,38
4,B5,38
5,B6,37

# Molecular target: T3, recombinant SARS-CoV-2 Spike RBD …
# Test: ELISA on coated RBD
row,Binder,Binding AUC
1,B1,31
2,B2,31
3,B4,33
4,B5,31
5,B6,31

# Molecular target: T4, recombinant SARS-CoV-2 Spike RBD …
# Test: ELISA on coated RBD
row,Binder,Binding AUC
1,B1,30
2,B2,30
3,B4,32
4,B5,30
5,B6,31

# Molecular target: T5, recombinant SARS-CoV-2 Spike RBD …
# Test: ELISA on coated RBD
row,Binder,Binding AUC
1,B1,26
2,B2,31
3,B4,32
4,B5,37
5,B6,39

# Molecular target: T6, recombinant SARS-CoV-2 Spike RBD …
# Test: ELISA on coated RBD
row,Binder,Binding AUC
1,B1,32
2,B2,29
3,B4,27
4,B5,32
5,B6,33

# Molecular target: T7, recombinant SARS-CoV-2 Spike RBD …
# Test: ELISA on coated RBD
row,Binder,Binding AUC
1,B1,35
2,B2,35
3,B4,35
4,B5,36
5,B6,35

# Molecular target: T8, recombinant SARS-CoV-2 Spike RBD …
# Test: ELISA on coated RBD
row,Binder,Binding AUC
1,B1,31
2,B2,30
3,B4,31
4,B5,31
5,B6,30

# Molecular target: T9, recombinant SARS-CoV-2 Spike RBD …
# Test: ELISA on coated RBD
row,Binder,Binding AUC
1,B1,34
2,B2,34
3,B4,34
4,B5,34
5,B6,34

# Molecular target: T10, recombinant SARS-CoV-2 Spike RBD …
# Test: ELISA on coated RBD
row,Binder,Binding AUC
1,B1,30
2,B2,30
3,B4,30
4,B5,30
5,B6,30
